Source: patent publication US20250388694A1 (BOOSTIMMUNE, published 2025)

What was measured:
[1] = biological target: T1, Human TCTP (translationally controlled tumor protein) (human, UniProt P13693 1-172); experiment: ELISA, human TCTP coated at 1 µg/ml, antibody titrated, OD 450 nm
T1 construct: also called HRF; Tpt1
T1 sequence: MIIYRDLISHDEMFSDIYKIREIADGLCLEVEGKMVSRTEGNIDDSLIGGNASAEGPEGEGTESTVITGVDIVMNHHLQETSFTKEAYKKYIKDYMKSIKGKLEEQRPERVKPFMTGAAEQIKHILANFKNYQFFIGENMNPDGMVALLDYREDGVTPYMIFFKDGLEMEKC
Experimental: ELISA was carried out to quantitatively analyze the binding capacity of selected antibodies to antigens. To this end, human TCTP was attached to an ELISA plate at a concentration of 1 μg/ml and then treated with antibodies of various concentrations to check the relative binding capacity. As a result of the measurement, all of antibodies Ab1, Ab2, Ab3, Ab4, Ab5, Ab6, Ab7, Ab8, Ab9, Ab12, Ab13, Ab14, Ab15, Ab17, Ab18, Ab19, Ab20, Ab21, and Ab22 were confirmed to bind well to human TCTP (FIGS. 1a and 1b).

[2] = biological target: T1, Human TCTP (translationally controlled …); experiment: SPR, Biacore 8K, human TCTP immobilised on CM5 chip, antibody as analyte, 1:1 model
Experimental: The antigen binding capacity of antibodies selected in Example 1 was analyzed using a SPR technique. The device used was Biacore 8K (Ge Healthcare). Human TCTP was immobilized on a chip, and antibodies were shed at 6 or 7 different concentrations. A CM5 chip (GE Healthcare, Cat. 29-1275-56), a regeneration buffer (10 mM glycine-HCl (GE Healthcare)), and a driving buffer HBS-EP+, and the like were used. For kinetic analysis, the binding time was set to 100 or 120 seconds, the flow rate was set to 30 or 50 μl/min in the binding phase, and in the dissociation phase, the dissociation time was set to 300 or 360 seconds, and the flow rate was set to 30 or 50 μl/min. The fitting was carried out using a 1:1 combined model, and BIACore Evaluation Software (GE healthcare) was used as the evaluation software.

[3] = biological target: T1, Human TCTP (translationally controlled …); experiment: ELISA on human TCTP, binder titrated as scFv (axis [scFv] Log(nM)), OD450 [panel Human TCTP]
mouse TCTP = biological target: T2, mouse TCTP (mouse, UniProt P63028 1-172); experiment: ELISA on mouse TCTP, binder titrated as scFv (axis [scFv] Log(nM)), OD450 [panel Mouse TCTP]
T2 sequence (looked up): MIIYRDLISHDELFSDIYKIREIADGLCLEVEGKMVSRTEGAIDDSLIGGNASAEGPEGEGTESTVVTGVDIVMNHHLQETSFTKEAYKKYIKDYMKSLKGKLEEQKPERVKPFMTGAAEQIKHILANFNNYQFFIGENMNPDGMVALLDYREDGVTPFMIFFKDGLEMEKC

[4] = biological target: T1, Human TCTP (translationally controlled …); experiment: competition ELISA: human TCTP coated at 1 µg/ml, 150 nM TLR2 plus titrated antibody, bound TLR2 detected; % inhibition of TLR2-TCTP binding

B1: Ab14 (antibody, V domains shown)
VH: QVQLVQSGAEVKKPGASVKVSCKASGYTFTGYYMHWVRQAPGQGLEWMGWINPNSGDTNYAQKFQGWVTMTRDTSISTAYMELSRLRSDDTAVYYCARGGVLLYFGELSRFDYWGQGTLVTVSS
VL: QSALTQPPSASGSPGQSVAISCTGTSSDVGGYNYVSWYQQHPGKAPQLLIYEVTKRPSGVPDRFSGSKSGNTASLTVSGLQAEDEADYYCASYAGDNNLVFGGGTKLTVL
notes: also called antibody Ab14
binding result [1]: binds

B2: Ab15 (antibody, V domains shown)
VH: QVQLVQSGAEVKKPGASVKLSCKAAGYTFTVNAMHWVRQAPGQGLEWMGWINAGTGKTKYSQKFQGRLTITRDTSASTAYMHLSGLRSEDTAVYYCARGRAVAFDPWGQGTLVTVSS
VL: QSALTQPPSASGSPGQSVTISCTGTSSDVGGYDYVSWYQQHPDKAPKLMIYEVNKRPSGVPDRFSGSKSGNTASLTVSGLQAEDEADYYCNSYAGNNNLVFGGGTKLTVL
notes: also called antibody Ab15
binding result [1]: binds

B3: Ab5 (antibody, V domains shown)
VH: QVQLVQSGAEVKKPGASVKVSCKASGYIFISYAMHWVRQAPGQRLEWMGWINAGNGYTEYSQKFQGRVTITRDTSALTAYMELRSLRSEDTAVYYCARRGYFDWWAFDYWGQGTLVTVSS
VL: EIVLTQSPDFQSVTPKEKVTITCRASQSIGSSLHWYQQKPDQSPKLLIKYASQSFSGVPSRFSGSGSGTDFTLTINSLEAEDAATYYCHQSSSLPQTFGQGTKVEIK
notes: From Beacon screening; also called antibody Ab5
binding result [1]: binds

B4: Ab6 (antibody, V domains shown)
VH: QVQLQESGPGLVKPSGTLSLTCAVSGGSISSSNWWSWVRQPPGKGLEWIGEIDHSGTTTYNPSLKSRVTMSVDQSKNQFSLKLSSVTAADTAVYYCARDGSGSYEGYWGQGTLVTVSS
VL: DIQMTQSPSSLSASVGDRVTITCRASQAISNHLAWFQQKPGKAPKSLIYAASSLQSGVPSKFSGSGSGTDFTLTISSLQPEDFATYYCQQYHSYPITFGQGTRLEIK
notes: From Beacon screening; also called antibody Ab6
Kd [2]: 72.8 nM

B5: Ab7 (antibody, V domains shown)
VH: QVQLQESGPGLVKPSETLSLTCAVSGGSISSSNWWSWVRQPPGKGLEWIGEIYHGVTTYNPSLKSRVTISVDNSKNQFSLKLSSVTAADTAVYYCARDGSGSYEGYWGQGTLVTVSS
VL: DIQMTQSPSSLSASVGDRVTITCRASQDISNYLAWFQQKPGKAPKSLIYAASSLQSGVPSKFSGSGSGTDFTLTISSLQPEDFATYYCQQYHYYPITFGQGTRLEIK
notes: From Beacon screening; also called antibody Ab7
Kd [2]: 107 nM

B6: Ab19 (antibody, V domains shown)
VH: QVQLQQSGPGLVKPSQTLSLTCAISGDSVSSSSAAWNWIRQSPSRGLEWLGRTYYRSKWYNDYAESVKSRITINPDTSKNQFSLQLNSVTPEDTAVYYCARRLTIVRGVMRGGMDVWGQGTTVTVSS
VL: DIVMTQSPDSLAVSLDERATINCKSSQNLLYSANNKDYLAWYQQKPGQPPKLLIYWASTRYSGIPDRFSGSGSGTDFTLTISSLQAEDVAVYYCQQYYSTPWTFGQGTKVEIK
notes: also called antibody Ab19
Kd [2]: 2.77 nM

B7: Ab4 (antibody, V domains shown)
VH: QVQLVQSGAEVKKPGASVKVSCKASGYTFTSNAMHWVRQAPGQRLEWMGWINAGNGNTKYSQKFQGRVTITRDTSASTAYMELSSLRSEDTAVYYCARGYYDILTGYYTTDAFDIWGQGTMVTVSS
VL: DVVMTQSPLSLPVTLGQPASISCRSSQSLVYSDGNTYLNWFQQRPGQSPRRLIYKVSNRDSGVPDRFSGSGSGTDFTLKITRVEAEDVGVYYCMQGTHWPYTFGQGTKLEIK
notes: From Beacon screening; also called antibody Ab4
binding result [1]: binds

B8: Ab10-1 (antibody, V domains shown)
VH: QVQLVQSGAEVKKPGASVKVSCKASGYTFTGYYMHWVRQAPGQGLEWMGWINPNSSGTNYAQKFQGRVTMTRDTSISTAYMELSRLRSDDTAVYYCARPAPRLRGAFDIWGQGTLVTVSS
VL: QSVVTQPPSVSAAPGQKVTISCSGSSSNIGNKKVSWYQQLPVTAPKLLIYDDNKRPSGIPDRFSGSKSGTSATLGITGLQTGDEADYYCATWDSSLRAVVFGGGTKLTVL
notes: Single-residue CDR mutant of Ab10; also called antibody Ab10-1; mutant of Ab10
EC50 (read off the curve) [3]: ~8 nM | binding result (mouse TCTP): binds

B9: Ab10-9 (antibody, V domains shown)
VH: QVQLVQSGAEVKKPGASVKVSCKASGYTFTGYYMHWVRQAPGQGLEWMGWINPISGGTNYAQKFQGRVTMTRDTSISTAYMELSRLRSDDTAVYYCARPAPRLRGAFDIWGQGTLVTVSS
VL: QSVVTQPPSVSAAPGQKVTISCSGSSSNIGNKKVSWYQQLPVTAPKLLIYDDNKRPSGIPDRFSGSKSGTSATLGITGLQTGDEADYYCATWDSSLRAVVFGGGTKLTVL
notes: Mutant of Ab10 made to prevent post-translational modification; also called antibody Ab10-9; mutant of Ab10
binding result [3]: binds | binding result (mouse TCTP): binds

B10: Ab10-4 (antibody, V domains shown)
VH: not shown
VL: QSVVTQPPSVSAAPGQKVTISCSGSSSNIGNKKVSWYQQLPVTAPKLLIYDDNKRPSGIPDRFSGSKSGTSATLGITGLQTGDEADYYCATWDSSLRAVVFGGGTKLTVL
notes: Single-residue CDR mutant of Ab10; also called antibody Ab10-4; mutant of Ab10
binding result [3]: binds | binding result (mouse TCTP): binds

B11: Ab10-8 (antibody, V domains shown)
VH: not shown
VL: QSVVTQPPSVSAAPGQKVTISCSGSSSNIGNKKVSWYQQLPVTAPKLLIYDDNKRPSGIPDRFSGSKSGTSATLGITGLQTGDEADYYCVTWDSSLRAVVFGGGTKLTVL
notes: Single-residue CDR mutant of Ab10; also called antibody Ab10-8; mutant of Ab10
binding result [3]: binds | binding result (mouse TCTP): binds

B12: Ab10-3 (antibody, V domains shown)
VH: not shown
VL: QSVVTQPPSVSAAPGQKVTISCSGSSSNIGNKKVSWYQQLPVTAPKLLIYDDNKRPSGIPDRFSGSKSGTSATLGITGLQTGDEADYYCATWDSSLRAVVFGGGTKLTVL
notes: Single-residue CDR mutant of Ab10; also called antibody Ab10-3; mutant of Ab10
EC50 (read off the curve) (mouse TCTP): ~5 nM | IC50 (read off the curve) [4]: ~20 nM

B13: Ab10-2 (antibody, V domains shown)
VH: not shown
VL: QSVVTQPPSVSAAPGQKVTISCSGSSSNIGNKKVSWYQQLPVTAPKLLIYDDNKRPSGIPDRFSGSKSGTSATLGITGLQTGDEADYYCATWDSSLRAVVFGGGTKLTVL
notes: Single-residue CDR mutant of Ab10; also called antibody Ab10-2; mutant of Ab10
binding result [3]: binds | binding result (mouse TCTP): binds

B14: Ab10-10 (antibody, V domains shown)
VH: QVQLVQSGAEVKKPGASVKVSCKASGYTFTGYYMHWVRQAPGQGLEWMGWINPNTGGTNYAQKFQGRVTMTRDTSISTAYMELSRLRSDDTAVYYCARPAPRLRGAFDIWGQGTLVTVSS
VL: QSVVTQPPSVSAAPGQKVTISCSGSSSNIGNKKVSWYQQLPVTAPKLLIYDDNKRPSGIPDRFSGSKSGTSATLGITGLQTGDEADYYCATWDSSLRAVVFGGGTKLTVL
notes: Mutant of Ab10 made to prevent post-translational modification; also called antibody Ab10-10; mutant of Ab10
binding result [3]: binds | binding result (mouse TCTP): binds

B15: Ab10-7 (antibody, V domains shown)
VH: not shown
VL: QSVVTQPPSVSAAPGQKVTISCSGSSSNIGNFKVSWYQQLPVTAPKLLIYDDNKRPSGIPDRFSGSKSGTSATLGITGLQTGDEADYYCATWDSSLRAVVFGGGTKLTVL
notes: Single-residue CDR mutant of Ab10; also called antibody Ab10-7; mutant of Ab10
EC50 (read off the curve) [3]: ~20 nM | binding result (mouse TCTP): binds

B16: Ab10-5 (antibody, V domains shown)
VH: not shown
VL: QSVVTQPPSVSAAPGQKVTISCSGSSSNIGNKKVSWYQQLPVTAPKLLIYDDNKRPSGIPDRFSGSKSGTSATLGITGLQTGDEADYYCATWDSSLRAVVFGGGTKLTVL
notes: Single-residue CDR mutant of Ab10; also called antibody Ab10-5; mutant of Ab10
binding result [3]: binds | binding result (mouse TCTP): binds

B17: Ab10-6 (antibody, V domains shown)
VH: not shown
VL: QSVVTQPPSVSAAPGQKVTISCSGSSSNIGTKKVSWYQQLPVTAPKLLIYDDNKRPSGIPDRFSGSKSGTSATLGITGLQTGDEADYYCATWDSSLRAVVFGGGTKLTVL
notes: Single-residue CDR mutant of Ab10; also called antibody Ab10-6; mutant of Ab10
EC50 (read off the curve) [3]: ~1 nM | EC50 (read off the curve) (mouse TCTP): ~9 nM

B18: Ab18 (antibody, V domains shown)
VH: QVQLQQSGPGLVKPSQTLSLTCAISGDSVSSNSAAWNWIRQSPSRGLEWLGRTYYRSKWYNDYAVSVKSRITINPDTSKNQFSLQLNSVTPEDTAVYYCARGGAAVFDYWGQGTLVTVSS
VL: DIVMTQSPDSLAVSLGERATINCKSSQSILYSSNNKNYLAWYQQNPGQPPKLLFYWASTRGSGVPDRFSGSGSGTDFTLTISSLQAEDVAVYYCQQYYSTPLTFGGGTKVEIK
notes: also called antibody Ab18
binding result [1]: binds

B19: Ab13 (antibody, V domains shown)
VH: QVQLQQSGPGLVKPSQTLSLTCAISGDSVSSNSAAWNWIRQSPSRGLEWLGRTYYRSKWYNDYAVSVKSRITINPDTSKNQFSLQLNSVTPEDTAVYYCARGGAAVFDYWGQGTLVTVSS
VL: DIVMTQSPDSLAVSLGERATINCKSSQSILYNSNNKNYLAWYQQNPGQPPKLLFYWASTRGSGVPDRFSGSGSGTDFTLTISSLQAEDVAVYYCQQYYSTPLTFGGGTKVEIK
notes: also called antibody Ab13
EC50 (read off the curve) [1]: ~10 ng/mL

B20: Ab17 (antibody, V domains shown)
VH: QVQLQQSGPGLVKPSQTLSLTCAISGDSVSSNSAAWNWIRQSPSRGLEWLGRTYYKSKWYNDYAVSVKSRMTINPDTSKNQFSLQLNSVTPEDTAVYYCARGGSAVFDYWGQGTLVTVSS
VL: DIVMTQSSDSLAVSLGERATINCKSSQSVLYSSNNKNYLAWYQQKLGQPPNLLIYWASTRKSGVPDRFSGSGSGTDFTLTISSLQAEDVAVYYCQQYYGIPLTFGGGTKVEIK
notes: also called antibody Ab17
Kd [2]: 1.23 nM

B21: Ab9 (antibody, V domains shown)
VH: QVQLQQSGPGLVKPSQTLSLTCAISGDSVSSNSAAWNWIRQSPSRGLEWLGRTYYRSKWYNDYAVSVKSRITINPDTSKNQFSLQLNSVTPEDTAVYYCAREGITVGRGVMLYFDLWGRGTLVTVSS
VL: DVLMTQSPLSLPVTLGQPASISCRSSQSLVYSDGNTHLKWFQQRPGQSPRRLIYKVSKWDSGVPDRVSGSGSGTDFTLKISRVEAEDVGVYYCMQGTHWPPTFGQGTKVEIK
notes: From Beacon screening; also called antibody Ab9
binding result [1]: binds
